Drawing on patent US20030143656A1, this text covers fold decrease in affinity for PIFtide and activation of p70 S6K on cotransfection with GST-F977A-PIF for two substances.

Test [1] addresses PIFtide (human). The test can be described thus: method not stated (reference mark lost).
Test [2] addresses endogenous PDK1 (293 cells) (human) (UniProt O15530). Put plainly: cell-based or functional assay.

Chain of PIFtide (human) (peptide, as listed by the source): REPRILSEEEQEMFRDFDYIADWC
Chain of endogenous PDK1 (293 cells) (human) (O15530 whole entry): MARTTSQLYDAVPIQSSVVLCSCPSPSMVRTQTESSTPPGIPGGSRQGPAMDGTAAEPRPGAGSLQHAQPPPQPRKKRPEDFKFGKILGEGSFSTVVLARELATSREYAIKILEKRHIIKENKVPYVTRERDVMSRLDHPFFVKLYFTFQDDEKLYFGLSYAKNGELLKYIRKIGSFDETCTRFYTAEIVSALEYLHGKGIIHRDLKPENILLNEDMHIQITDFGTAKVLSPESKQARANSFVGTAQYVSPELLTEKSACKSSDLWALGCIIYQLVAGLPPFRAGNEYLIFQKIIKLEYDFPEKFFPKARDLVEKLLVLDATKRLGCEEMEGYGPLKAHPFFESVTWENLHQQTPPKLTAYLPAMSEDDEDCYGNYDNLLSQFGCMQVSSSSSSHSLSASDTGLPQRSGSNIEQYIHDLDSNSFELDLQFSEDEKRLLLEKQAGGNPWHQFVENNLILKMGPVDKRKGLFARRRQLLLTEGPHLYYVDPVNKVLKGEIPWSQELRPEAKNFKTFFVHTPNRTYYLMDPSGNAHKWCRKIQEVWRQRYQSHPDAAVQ

In the case of “GST-PDK1 I119A (from UniProt O15530 1-556) (enzyme)”, in test [1], the fold decrease in affinity for PIFtide is 10 fold.

In test [2], “GST-F977A-PIF (from UniProt Q16513 908-984)” gave an activation of p70 S6K on cotransfection with GST-F977A-PIF of 50%.
